Laboratory results taken from article PMC12628175.

Target: Recombinant human G-CSFR (granulocyte-colony-stimulating factor receptor) (human) (UniProt Q99062)
UniProt Q99062, sequence (Q99062 25-333): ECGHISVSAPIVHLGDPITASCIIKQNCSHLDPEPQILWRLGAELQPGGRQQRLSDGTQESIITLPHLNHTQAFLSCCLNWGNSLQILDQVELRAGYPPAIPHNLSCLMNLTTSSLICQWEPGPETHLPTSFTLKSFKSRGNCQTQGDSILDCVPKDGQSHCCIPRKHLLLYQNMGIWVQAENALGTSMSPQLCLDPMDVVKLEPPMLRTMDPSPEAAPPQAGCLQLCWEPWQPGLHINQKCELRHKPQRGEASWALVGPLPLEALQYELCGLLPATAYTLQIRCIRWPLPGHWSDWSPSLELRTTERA

Recombinant human granulocyte colony-stimulating factor (rhG-CSF) (from UniProt P09919 31-207) (ligand)
EC50 (pM) of proliferation of murine NFS-60 cells (48 h, CellTiter-Blue; receptor of the cells); rhG-CSF self-made from E. coli: 2.6 pM
